Data: IntAct's records for PubMed 24434579

B1: Seipin (Saccharomyces cerevisiae), Q06058 (parent)
chain: MKINVSRPLQFLQWSSYIVVAFLIQLLIILPLSILIYHDFYLRLLPADSSNVVPLNTFNILNGVQFGTKFFQSIKSIPVGTDLPQTIDNGLSQLIPMRDNMEYKLDLNLQLYCQSKTDHLNLDNLLIDVYRGPGPLLGAPGGSNSKDEKIFHTSRPIVCLALTDSMSPQEIEQLGPSRLDVYDEEWLNTIRIEDKISLESSYETISVFLKTEIAQRNLIIHPESGIKFRMNFEQGLRNLMLRKRFLSYIIGISIFHCIICVLFFITGCTAFIFVRKGQEKSKKHS
partner: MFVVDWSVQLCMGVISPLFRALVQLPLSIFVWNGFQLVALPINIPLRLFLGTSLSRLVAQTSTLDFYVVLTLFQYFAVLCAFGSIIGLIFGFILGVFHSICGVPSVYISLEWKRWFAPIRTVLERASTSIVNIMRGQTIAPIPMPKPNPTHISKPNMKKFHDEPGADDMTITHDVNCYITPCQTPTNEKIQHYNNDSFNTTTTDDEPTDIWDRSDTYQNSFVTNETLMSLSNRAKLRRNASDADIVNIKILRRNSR

Variants of: B1
Settings: with ldb16_yeast LDB16, P25587

Row | effect of a mutation on the interaction | Variant
1 | decreasing interaction strength | G225P
